Test results taken from patent US20210032365A1 (Chugai, published 2021).

T1: Serum-derived human C1s (human, UniProt P09871 16-688)
T1 construct: The analyte was C1s purified from serum; also called hC1s
T1 sequence: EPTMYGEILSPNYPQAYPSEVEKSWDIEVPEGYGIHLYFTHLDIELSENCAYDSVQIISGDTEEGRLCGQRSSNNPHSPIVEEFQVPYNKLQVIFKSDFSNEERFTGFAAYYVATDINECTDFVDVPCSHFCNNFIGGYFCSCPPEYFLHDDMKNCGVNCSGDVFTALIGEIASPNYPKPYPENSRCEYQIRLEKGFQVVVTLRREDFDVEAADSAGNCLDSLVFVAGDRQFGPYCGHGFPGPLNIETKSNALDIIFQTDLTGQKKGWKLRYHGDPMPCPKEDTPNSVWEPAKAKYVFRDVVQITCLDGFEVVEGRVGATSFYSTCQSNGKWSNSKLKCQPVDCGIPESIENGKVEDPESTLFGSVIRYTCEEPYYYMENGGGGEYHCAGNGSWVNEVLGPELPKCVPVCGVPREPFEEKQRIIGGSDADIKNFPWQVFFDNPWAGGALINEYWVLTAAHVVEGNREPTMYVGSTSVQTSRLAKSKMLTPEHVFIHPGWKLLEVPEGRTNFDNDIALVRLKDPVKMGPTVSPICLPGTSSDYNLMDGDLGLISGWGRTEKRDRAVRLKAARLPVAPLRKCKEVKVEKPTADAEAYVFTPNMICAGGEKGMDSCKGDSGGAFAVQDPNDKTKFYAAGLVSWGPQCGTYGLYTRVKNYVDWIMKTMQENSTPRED


Legend:
[1] = target: T1, Serum-derived human C1s; assay: SPR Biacore T200, 37 C, ratio of KD pH 5.8 / pH 7.4, 1.2 mM CaCl2
Description: The binding affinity of all histidine-substituted variants at pH 7.4 and pH 5.8 were determined at 37 degrees C. using Biacore T200 instrument (GE Healthcare). Recombinant Protein A/G (Pierce) was immobilized onto all flow cells of a CM4 sensor chip using amine coupling kit (GE Healthcare). Antibodies and analytes were prepared in 7(+) buffer (20 mM ACES, 150 mM NaCl, 1.2 mM CaCl2, 0.05% Tween 20, 0.005% NaN3, pH 7.4) or 5(+) buffer (20 mM ACES, 150 mM NaCl, 1.2 mM CaCl2), 0.05% Tween 20, 0.005% NaN3, pH 5.8). Each antibody was captured onto the sensor surface by protein A/G. Antibody capture levels were aimed at 200 resonance unit (RU). […] Sensor surface was regenerated each cycle with 10 mM Glycine-HCl pH 1.5. […] An additional dissociation phase at pH 5.8 was integrated immediately after the dissociation phase at pH 7.4. This dissociation rate in 5(+) buffer was determined by processing and fitting data using Scrubber 2.0 (BioLogic Software) curve fitting software. […]

[2] = target: T1, Serum-derived human C1s; assay: SPR Biacore T200, 37 C, antibody captured on protein A/G, pH 5.8, 1.2 mM CaCl2
Description: (§1) The binding affinity of all histidine-substituted variants at pH 7.4 and pH 5.8 were determined at 37 degrees C. using Biacore T200 instrument (GE Healthcare). Recombinant Protein A/G (Pierce) was immobilized onto all flow cells of a CM4 sensor chip using amine coupling kit (GE Healthcare). Antibodies and analytes were prepared in 7(+) buffer (20 mM ACES, 150 mM NaCl, 1.2 mM CaCl2, 0.05% Tween 20, 0.005% NaN3, pH 7.4) or 5(+) buffer (20 mM ACES, 150 mM NaCl, 1.2 mM CaCl2), 0.05% Tween 20, 0.005% NaN3, pH 5.8). Each antibody was captured onto the sensor surface by protein A/G. Antibody capture levels were aimed at 200 resonance unit (RU). […] Sensor surface was regenerated each cycle with 10 mM Glycine-HCl pH 1.5. […] An additional dissociation phase at pH 5.8 was integrated immediately after the dissociation phase at pH 7.4. This dissociation rate in 5(+) buffer was determined by processing and fitting data using Scrubber 2.0 (BioLogic Software) curve fitting software.

[3] = target: T1, Serum-derived human C1s; assay: SPR Biacore T200, 37 C, antibody captured on protein A/G, pH 7.4, 1.2 mM CaCl2
Description: as §1

[4] = target: T1, Serum-derived human C1s; assay: SPR Biacore T200, 37 C, ratio of dissociation rates pH 5.8 / pH 7.4, 1.2 mM CaCl2
Description: as §1

KD (5.8+)/KD (7.4+) [1] | koff [2] | kon [2] | kon [3] | koff (5.8+ of 775+)/koff (7.4+) [4] | Kd [2] | Kd [3] | Binder
8.9 | 0.00309 s⁻¹ | 289000 M⁻¹ s⁻¹ | 384000 M⁻¹ s⁻¹ | 7.7 | 10.7 nM | 1.2 nM | IPN92H0038/IPN93L0024-SG136 (antibody, human IgG1, kappa, name in Kabat numbering, Substitutions are numbered by Kabat) heavy: EVMLVESGGGLVKPGGSLRLSCAASGFTFSNYAMSWVRQAPGKGLEWVATISSGGSHTYYLDSVKHRFTISRDNSKDTLYLQMNSLRAEDTALYYCARLFTGHAMDYWGQGTLVTVSSASTKGPSVFPLAPSSKSTSGGTAALGCLVKDYFPEPVTVSWNSGALTSGVHTFPAVLQSSGLYSLSSVVTVPSSSLGTQTYICNVNHKPSNTKVDKKVEPKSCDKTHTCPPCPAPELRRGPSVFLFPPKPKDTLMISRTPEVTCVVVDVSHEDPEVKFNWYVDGVEVHNAKTKPREEQYNSTYRVVSVLTVLHQDWLNGKEYKCKVSNKGLPSSIEKTISKAKGQPREPQVYTLPPSREEMTKNQVSLTCLVKGFYPSDIAVEWESNGQPENNYKTTPPVLDSDGSFFLYSKLTVDKSRWQQGNVFSCSVMHEALHNHYTQKSLSLSP light: QIVLTQSPATLSLSPGERATLSCTASSSVSSSYLHWYQQKPGKAPKLWIYSTSNLASGVPSRFSGSGSGTDYTLTISSLQPEDFATYYCHQYYRLHPITFGQGTKLEIKRTVAAPSVFIFPPSDEQLKSGTASVVCLLNNFYPREAKVQWKVDNALQSGNSQESVTEQDSKDCTYSLSSTLTLSKADYEKHKVYACEVTHQGLSSPVTKSFNRGEC
60.9 | 0.0267 s⁻¹ | 217000 M⁻¹ s⁻¹ | 319000 M⁻¹ s⁻¹ | 38.2 | 123 nM | 2.02 nM | IPN92H0281/IPN93L0024-SG136 (antibody, human IgG1, kappa, name in Kabat numbering, Substitutions are numbered by Kabat) heavy: EVMLVESGGGLVKPGGSLRLSCAASGFTFSNYAMSWVRQAPGKGLEWVATISSGGSKTYELDSVDERFTISRDNSKDTLYLQMNSLRAEDTALYYCARLFTKHAMDYWGQGTLVTVSSASTKGPSVFPLAPSSKSTSGGTAALGCLVKDYFPEPVTVSWNSGALTSGVHTFPAVLQSSGLYSLSSVVTVPSSSLGTQTYICNVNHKPSNTKVDKKVEPKSCDKTHTCPPCPAPELRRGPSVFLFPPKPKDTLMISRTPEVTCVVVDVSHEDPEVKFNWYVDGVEVHNAKTKPREEQYNSTYRVVSVLTVLHQDWLNGKEYKCKVSNKGLPSSIEKTISKAKGQPREPQVYTLPPSREEMTKNQVSLTCLVKGFYPSDIAVEWESNGQPENNYKTTPPVLDSDGSFFLYSKLTVDKSRWQQGNVFSCSVMHEALHNHYTQKSLSLSP light: QIVLTQSPATLSLSPGERATLSCTASSSVSSSYLHWYQQKPGKAPKLWIYSTSNLASGVPSRFSGSGSGTDYTLTISSLQPEDFATYYCHQYYRLHPITFGQGTKLEIKRTVAAPSVFIFPPSDEQLKSGTASVVCLLNNFYPREAKVQWKVDNALQSGNSQESVTEQDSKDCTYSLSSTLTLSKADYEKHKVYACEVTHQGLSSPVTKSFNRGEC

The next lines start with the binder.

Binder | KD (5.8+)/KD (7.4+) [1] | koff [2] | kon [2] | kon [3] | koff (5.8+ of 775+)/koff (7.4+) [4] | Kd [2] | Kd [3]
IPN009VH2/IPN93L0024-SG136 (antibody, human IgG1, kappa, VL is IPN009VK3 with P95H (Kabat)) heavy: EVMLVESGGGLVKPGGSLRLSCAASGFTFSNYAMSWVRQAPGKGLEWVATISSGGSHTYYLDSVKGRFTISRDNSKDTLYLQMNSLRAEDTALYYCARLFTGYAMDYWGQGTLVTVSSASTKGPSVFPLAPSSKSTSGGTAALGCLVKDYFPEPVTVSWNSGALTSGVHTFPAVLQSSGLYSLSSVVTVPSSSLGTQTYICNVNHKPSNTKVDKKVEPKSCDKTHTCPPCPAPELRRGPSVFLFPPKPKDTLMISRTPEVTCVVVDVSHEDPEVKFNWYVDGVEVHNAKTKPREEQYNSTYRVVSVLTVLHQDWLNGKEYKCKVSNKGLPSSIEKTISKAKGQPREPQVYTLPPSREEMTKNQVSLTCLVKGFYPSDIAVEWESNGQPENNYKTTPPVLDSDGSFFLYSKLTVDKSRWQQGNVFSCSVMHEALHNHYTQKSLSLSP light: QIVLTQSPATLSLSPGERATLSCTASSSVSSSYLHWYQQKPGKAPKLWIYSTSNLASGVPSRFSGSGSGTDYTLTISSLQPEDFATYYCHQYYRLHPITFGQGTKLEIKRTVAAPSVFIFPPSDEQLKSGTASVVCLLNNFYPREAKVQWKVDNALQSGNSQESVTEQDSKDCTYSLSSTLTLSKADYEKHKVYACEVTHQGLSSPVTKSFNRGEC | 1.3 | 0.000956 s⁻¹ | 221000 M⁻¹ s⁻¹ | 180000 M⁻¹ s⁻¹ | 1.2 |  | 
IPN92H0033/IPN009VK3-SG136 (antibody, human IgG1, kappa, VH is IPN009VH2 with Y99H (Kabat)) heavy: EVMLVESGGGLVKPGGSLRLSCAASGFTFSNYAMSWVRQAPGKGLEWVATISSGGSHTYYLDSVKGRFTISRDNSKDTLYLQMNSLRAEDTALYYCARLFTGHAMDYWGQGTLVTVSSASTKGPSVFPLAPSSKSTSGGTAALGCLVKDYFPEPVTVSWNSGALTSGVHTFPAVLQSSGLYSLSSVVTVPSSSLGTQTYICNVNHKPSNTKVDKKVEPKSCDKTHTCPPCPAPELRRGPSVFLFPPKPKDTLMISRTPEVTCVVVDVSHEDPEVKFNWYVDGVEVHNAKTKPREEQYNSTYRVVSVLTVLHQDWLNGKEYKCKVSNKGLPSSIEKTISKAKGQPREPQVYTLPPSREEMTKNQVSLTCLVKGFYPSDIAVEWESNGQPENNYKTTPPVLDSDGSFFLYSKLTVDKSRWQQGNVFSCSVMHEALHNHYTQKSLSLSP light: QIVLTQSPATLSLSPGERATLSCTASSSVSSSYLHWYQQKPGKAPKLWIYSTSNLASGVPSRFSGSGSGTDYTLTISSLQPEDFATYYCHQYYRLPPITFGQGTKLEIKRTVAAPSVFIFPPSDEQLKSGTASVVCLLNNFYPREAKVQWKVDNALQSGNSQESVTEQDSKDCTYSLSSTLTLSKADYEKHKVYACEVTHQGLSSPVTKSFNRGEC | 0.9 | 0.000362 s⁻¹ | 389000 M⁻¹ s⁻¹ | 377000 M⁻¹ s⁻¹ | 0.7 |  | 
IPN92H0033/IPN93L0024-SG136 (antibody, human IgG1, kappa) heavy: EVMLVESGGGLVKPGGSLRLSCAASGFTFSNYAMSWVRQAPGKGLEWVATISSGGSHTYYLDSVKGRFTISRDNSKDTLYLQMNSLRAEDTALYYCARLFTGHAMDYWGQGTLVTVSSASTKGPSVFPLAPSSKSTSGGTAALGCLVKDYFPEPVTVSWNSGALTSGVHTFPAVLQSSGLYSLSSVVTVPSSSLGTQTYICNVNHKPSNTKVDKKVEPKSCDKTHTCPPCPAPELRRGPSVFLFPPKPKDTLMISRTPEVTCVVVDVSHEDPEVKFNWYVDGVEVHNAKTKPREEQYNSTYRVVSVLTVLHQDWLNGKEYKCKVSNKGLPSSIEKTISKAKGQPREPQVYTLPPSREEMTKNQVSLTCLVKGFYPSDIAVEWESNGQPENNYKTTPPVLDSDGSFFLYSKLTVDKSRWQQGNVFSCSVMHEALHNHYTQKSLSLSP light: QIVLTQSPATLSLSPGERATLSCTASSSVSSSYLHWYQQKPGKAPKLWIYSTSNLASGVPSRFSGSGSGTDYTLTISSLQPEDFATYYCHQYYRLHPITFGQGTKLEIKRTVAAPSVFIFPPSDEQLKSGTASVVCLLNNFYPREAKVQWKVDNALQSGNSQESVTEQDSKDCTYSLSSTLTLSKADYEKHKVYACEVTHQGLSSPVTKSFNRGEC | 4.7 | 0.0031 s⁻¹ | 261000 M⁻¹ s⁻¹ | 227000 M⁻¹ s⁻¹ | 5.1 |  | 
